Assay results from PMC3079738.

Target: human CD81 expressed on transfected CHO cells (human) (UniProt P60033)
Experiment: flow cytometry on cells; CHO cells transfected with human CD81 plasmid (or naive), 5x10^5 cells incubated with crude 293T cell extract containing E2 for 1 h at room temperature in PBS, 2% fetal calf serum, 0.05% NaN3; detected with goat anti-E2 and FITC anti-goat IgG; MFI as percent of wild type E2 on CHO-CD81

Chain of UniProt P60033 (P60033 whole entry): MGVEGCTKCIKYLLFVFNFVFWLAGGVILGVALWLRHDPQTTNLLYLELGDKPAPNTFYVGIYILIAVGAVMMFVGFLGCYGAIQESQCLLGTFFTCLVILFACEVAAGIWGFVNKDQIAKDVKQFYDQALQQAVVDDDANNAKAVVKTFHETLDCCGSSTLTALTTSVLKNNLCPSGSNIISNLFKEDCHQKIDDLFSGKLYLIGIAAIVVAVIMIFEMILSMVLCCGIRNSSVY

In the case of “E2-W529/A, mutant of the carboxyl terminal truncated HCV E2 protein (aa 364-661), strain H77 (from UniProt P27958 364-661) (domain or fragment)”, the CD81 binding activity as percent of the wild type protein (MFI) is reported as less than 5%.
